Laboratory results reported in patent US20190211317A1, “PEPTIDES AND NANOPARTICLES FOR INTRACELLULAR DELIVERY OF GENOME-EDITING MOLECULES” (Aadigen, LLC, priority 2016, published 2019).
Non-standard residues stand in square brackets, D forms with d. No end group written: not given here. βAla = NCCC(=O)O

Target: CY5 fluorescently labeled CAS9 protein (S. pyogenes), Q99ZW2
Assay: fluorescence titration of 5 nM CY5-CAS9 with increasing peptide, quadratic fit
Details: remark: other sources report otherwise

Chain of CY5 fluorescently labeled CAS9 protein (S. pyogenes), Q99ZW2 (Q99ZW2 whole entry): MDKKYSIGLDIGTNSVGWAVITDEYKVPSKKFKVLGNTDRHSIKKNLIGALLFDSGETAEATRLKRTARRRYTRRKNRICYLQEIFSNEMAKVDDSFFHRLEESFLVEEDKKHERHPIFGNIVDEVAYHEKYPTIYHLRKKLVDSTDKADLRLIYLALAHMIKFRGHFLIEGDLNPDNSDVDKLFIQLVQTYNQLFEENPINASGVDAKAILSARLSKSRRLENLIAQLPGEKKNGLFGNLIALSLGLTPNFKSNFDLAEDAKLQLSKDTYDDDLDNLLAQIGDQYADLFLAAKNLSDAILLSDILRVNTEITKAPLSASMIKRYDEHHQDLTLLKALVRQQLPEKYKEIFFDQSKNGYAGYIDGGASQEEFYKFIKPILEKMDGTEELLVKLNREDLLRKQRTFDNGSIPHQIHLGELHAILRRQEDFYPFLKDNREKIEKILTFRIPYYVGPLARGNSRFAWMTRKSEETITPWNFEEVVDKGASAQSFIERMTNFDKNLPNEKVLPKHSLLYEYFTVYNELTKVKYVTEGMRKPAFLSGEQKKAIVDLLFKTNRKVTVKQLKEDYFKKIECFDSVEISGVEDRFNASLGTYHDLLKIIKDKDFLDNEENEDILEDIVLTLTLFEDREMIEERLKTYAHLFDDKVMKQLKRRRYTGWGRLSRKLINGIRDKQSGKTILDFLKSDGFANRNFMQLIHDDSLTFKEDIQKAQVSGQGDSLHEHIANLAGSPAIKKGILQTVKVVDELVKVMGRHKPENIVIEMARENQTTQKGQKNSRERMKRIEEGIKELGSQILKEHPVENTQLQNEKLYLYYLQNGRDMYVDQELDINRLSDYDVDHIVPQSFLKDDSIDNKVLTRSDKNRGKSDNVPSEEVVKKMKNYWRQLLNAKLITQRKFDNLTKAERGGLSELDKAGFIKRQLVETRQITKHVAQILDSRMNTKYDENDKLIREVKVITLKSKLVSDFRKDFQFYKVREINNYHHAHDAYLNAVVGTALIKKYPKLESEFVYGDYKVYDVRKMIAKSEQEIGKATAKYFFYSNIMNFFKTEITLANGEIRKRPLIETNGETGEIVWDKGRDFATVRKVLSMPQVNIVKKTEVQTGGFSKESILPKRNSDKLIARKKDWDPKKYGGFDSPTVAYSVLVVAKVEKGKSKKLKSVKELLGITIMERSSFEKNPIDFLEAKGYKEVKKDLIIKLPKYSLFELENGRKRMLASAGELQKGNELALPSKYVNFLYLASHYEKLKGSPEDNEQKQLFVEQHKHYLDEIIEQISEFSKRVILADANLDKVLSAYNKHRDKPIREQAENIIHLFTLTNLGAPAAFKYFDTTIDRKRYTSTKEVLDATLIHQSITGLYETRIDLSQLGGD

Binder	Kd [nM]
GLWRALWRLLRSLWRLLWKV (also: acetate salt) [CADY]	> 100
[βAla]LWRALWRLWRSLWRLLWKA (also: acetate salt) [VEPEP-6]	> 100
